Data taken from publication PMC5449596.

B1: 88.1 (6/5AL) aptamer (structured_RNA)
RNA: GGGAAAAGCGAAUCAUACACAAGACAUUGACCAAAAGGGUCGAUAGCGUCGUGUAGAUUGCACCCAUGACUGAGCUACUGCCAAAUCCACCCACGGGCAUAAGGUAUUUAAUUCCAUA
B2: Arbitrary control RNA (ssRNA)
RNA: GGGAAAAGCGAAUCAUACACAAGAAAUUUGGACUUUCCGCCCUUCUUGGCCUUUAUGAGGAUCUCUCUGAUUUUUCUUGCGUCGAGUUUUCCGGGGGCAUAAGGUAUUUAAUUCCAUA

How the values were obtained:
[1] = biological target: T1, HIV-1 reverse transcriptase, subtype B (HIV-1 subtype B strain HXB2, UniProt P04585;P04585 588-1147;588-1027); experiment: filter binding
[2] = biological target: T1, HIV-1 reverse transcriptase, subtype B; experiment: filter binding; remark: listed apart in the source

| Binder | Kd [1] [nM] | binding result [2] |
| --- | --- | --- |
| B1 | 81 |  |
| B2 |  | no binding |
